According to the supplement of paper PMC9112550, “Optimization of the antimicrobial peptide Bac7 by deep mutational scanning” (BMC Biology, 2022):

Each sequence was assayed on Escherichia coli TOP10 (assay: shrunken log2 fold change of peptide-encoding DNA abundance (4.5 h post-induction vs induction); higher = less antimicrobial activity (less host growth inhibition)). Conditions: time post-induction: 4.5 h; library: site-saturation at positions 5, 18, 19, 20.
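Also: peptides expressed intracellularly from a pBAD plasmid library in pooled LB shake-flask culture, induced with 0.3% L-arabinose, DNA abundance read by NGS, three biological replicates, DESeq2 with apeglm shrinkage.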

| Sequence | shrunken log2 fold change |
| --- | --- |
| RRIRVRPPRLPRPRPRPQVSPRP | 0.0417 |
| RRIRVRPPRLPRPRPRPQWIPRP | -0.895 |
| RRIRVRPPRLPRPRPRPRCPPRP | -0.00901 |
| RRIRVRPPRLPRPRPRPREAPRP | 0.0545 |
| RRIRVRPPRLPRPRPRPREVPRP | 0.089 |
| RRIRVRPPRLPRPRPRPRFRPRP | 0.193 |
| RRIRVRPPRLPRPRPRPRGQPRP | 0.131 |
| RRIRVRPPRLPRPRPRPRHFPRP | 0.13 |
| RRIRVRPPRLPRPRPRPRHTPRP | 0.226 |
| RRIRVRPPRLPRPRPRPRIKPRP | -0.125 |
| RRIRVRPPRLPRPRPRPRINPRP | -0.07 |
| RRIRVRPPRLPRPRPRPRKAPRP | -0.124 |
| RRIRVRPPRLPRPRPRPRKSPRP | 0.337 |
| RRIRVRPPRLPRPRPRPRLEPRP | 0.138 |
| RRIRVRPPRLPRPRPRPRNMPRP | -0.318 |
| RRIRVRPPRLPRPRPRPRPVPRP | 0.515 |
| RRIRVRPPRLPRPRPRPRQNPRP | 0.00342 |
| RRIRVRPPRLPRPRPRPRQPPRP | 0.284 |
| RRIRVRPPRLPRPRPRPRQWPRP | 0.236 |
| RRIRVRPPRLPRPRPRPRRLPRP | 0.135 |
| RRIRVRPPRLPRPRPRPRSMPRP | -0.123 |
| RRIRVRPPRLPRPRPRPRTNPRP | -0.42 |
| RRIRVRPPRLPRPRPRPRWLPRP | 0.211 |
| RRIRVRPPRLPRPRPRPRWQPRP | 0.0341 |
| RRIRVRPPRLPRPRPRPSAEPRP | 0.299 |

| Sequence | shrunken log2 fold change |
| --- | --- |
| RRIRVRPPRLPRPRPRPSDEPRP | -0.463 |
| RRIRVRPPRLPRPRPRPSDHPRP | -0.0923 |
| RRIRVRPPRLPRPRPRPSEDPRP | 0.376 |
| RRIRVRPPRLPRPRPRPSEMPRP | 0.0713 |
| RRIRVRPPRLPRPRPRPSGFPRP | -0.131 |
| RRIRVRPPRLPRPRPRPSHKPRP | -0.24 |
| RRIRVRPPRLPRPRPRPSHSPRP | -0.171 |
| RRIRVRPPRLPRPRPRPSIIPRP | -0.384 |
| RRIRVRPPRLPRPRPRPSKFPRP | -0.579 |
| RRIRVRPPRLPRPRPRPSLKPRP | 0.215 |
| RRIRVRPPRLPRPRPRPSLQPRP | -0.0631 |
| RRIRVRPPRLPRPRPRPSLWPRP | 0.183 |
| RRIRVRPPRLPRPRPRPSMDPRP | 2.34 |
| RRIRVRPPRLPRPRPRPSNIPRP | -0.526 |
| RRIRVRPPRLPRPRPRPSQPPRP | -0.112 |
| RRIRVRPPRLPRPRPRPSQVPRP | -0.215 |
| RRIRVRPPRLPRPRPRPSRGPRP | 0.413 |
| RRIRVRPPRLPRPRPRPSRTPRP | -0.47 |
| RRIRVRPPRLPRPRPRPSSRPRP | -0.231 |
| RRIRVRPPRLPRPRPRPSVFPRP | -0.126 |
| RRIRVRPPRLPRPRPRPSVMPRP | -0.15 |
| RRIRVRPPRLPRPRPRPSYQPRP | -0.34 |
| RRIRVRPPRLPRPRPRPTAAPRP | 0.09 |
| RRIRVRPPRLPRPRPRPTAIPRP | 0.12 |
| RRIRVRPPRLPRPRPRPTCVPRP | -0.0916 |

| Sequence | shrunken log2 fold change |
| --- | --- |
| RRIRVRPPRLPRPRPRPTDWPRP | 0.255 |
| RRIRVRPPRLPRPRPRPTGQPRP | 0.526 |
| RRIRVRPPRLPRPRPRPTIKPRP | -0.226 |
| RRIRVRPPRLPRPRPRPTIQPRP | -0.526 |
| RRIRVRPPRLPRPRPRPTISPRP | -0.12 |
| RRIRVRPPRLPRPRPRPTIWPRP | -0.0331 |
| RRIRVRPPRLPRPRPRPTKFPRP | -0.248 |
| RRIRVRPPRLPRPRPRPTKNPRP | -0.00729 |
| RRIRVRPPRLPRPRPRPTLDPRP | 0.125 |
| RRIRVRPPRLPRPRPRPTLTPRP | -0.0107 |
| RRIRVRPPRLPRPRPRPTLVPRP | 0.0318 |
| RRIRVRPPRLPRPRPRPTMWPRP | 0.267 |
| RRIRVRPPRLPRPRPRPTNSPRP | -0.436 |
| RRIRVRPPRLPRPRPRPTPFPRP | 0.279 |
| RRIRVRPPRLPRPRPRPTQHPRP | 0.155 |
| RRIRVRPPRLPRPRPRPTRTPRP | 0.495 |
| RRIRVRPPRLPRPRPRPTSRPRP | -0.139 |
| RRIRVRPPRLPRPRPRPTTCPRP | -0.0091 |
| RRIRVRPPRLPRPRPRPTTKPRP | -0.162 |
| RRIRVRPPRLPRPRPRPTVVPRP | 0.0028 |
| RRIRVRPPRLPRPRPRPTYHPRP | 1.5 |
| RRIRVRPPRLPRPRPRPTYWPRP | 0.0478 |
| RRIRVRPPRLPRPRPRPVAAPRP | 0.368 |
| RRIRVRPPRLPRPRPRPVAFPRP | -0.0455 |
| RRIRVRPPRLPRPRPRPVAYPRP | -0.282 |
